Reference: patent US8796201B2 (The Board of Trustees of the Leland Stanford Junior …, priority 2002, dated 2014)

B1: PEP: prolyl endopeptidase; Examples 1-2: from Flavobacterium meningosepticum (US Biological); Example 11: source not stated (protein, UniProt P27028 21-705, looked up)
Prolyl endopeptidase: QNSNVLKYPETKKVSHTDTYFGTQVSDPYRWLEDDRAEDTKAWVQQEVKFTQDYLAQIPFRDQLKKQLMDIWNYEKISAPFKKGKYTYFSKNDGLQAQSVLYRKDAAGKTEVFLDPNKFSEKGTTSLASVSFNKKGTLVAYSISEGGSDWNKIIILDAETKKQLDETLLDVKFSGISWLGDEGFFYSSYDKPKEGSVLSGMTDKHKVYFHKLGTKQSQDELIIGGDKFPRRYIGAYVTDDQRYLVVSAANATNGNELYIKDLKNKTDFIPIITGFDSNVNVADTDGDTLYLFTDKDAPNKRLVKTTIQNPKAETWKDVIAETSEPLEINTGGGYFFATYMKDAIDQVKQYDKNGKLVRAIKLPGSGNASGFGGEKTEKDLYYSFTNYITPPTIFKYNVTTGNSEVYQKPKVKFNPENYVSEQVFYTSSDGTKIPMMISYKKGLKKDGKNPTILYSYGGFNISLQPAFSVVNAIWMENGGIYAVPNIRGGGEYGKKWHDAGTKMQKKNVFNDFIAAGEYLQKNGYTSKEYMALSGRSNGGLLVGATMTMRPDLAKVAFPGVGVLDMLRYNKFTAGAGWAYDYGTAEDSKEMFEYLKSYSPVHNVKAGTCYPSTMVITSDHDDRVVPAHSFKFGSELQAKQSCKNPILIRIETNAGHGAGRSTEQVVAENADLLSFALYEMGIKSLK
B2: MX PEP: novel recombinant prolyl endopeptidase from Myxococcus xanthus (Genbank AF127082, SEQ ID NO:47) (protein, listed as Myxococcus xanthus)
chain: MSYPATRAEQVVDTLHGVQVADPYRWLEDEKAPEVQTWMTAQNAHAREALAKFPGREALAARFKELFYTDSVSTPSRRNGRFFYVRTHKDKEKAILYWRQGESGQEKVLLDPNGWSKDGTVSLGTWAVSWDGKKVAFAQKPNAADEAVLHVIDVDSGEWSKVDVIEGGKYATPKWTPDSKGFYYEWLPTDPSIKVDERPGYTTIRYHTLGTEPSKDTVVHERTGDPTTFLQSDLSRDGKYLFVYILRGWSENDVYWKRPGEKDFRLLVKGVGAKYEVHAWKDRFYVLTDEGAPRQRVFEVDPAKPARASWKEIVPEDSSASLLSVSIVGGHLSLEYLKDATSEVRVATLKGKPVRTVQLPGVGAASNLMGLEDLDDAYYVFTSFTTPRQIYKTSVSTGKSELWAKVDVPMNPEQYQVEQVFYASKDGTKVPMFVVHRKDLKRDGNAPTLLYGYGGFNVNMEANFRSSILPWLDAGGVYAVANLRGGGEYGKAWHDAGRLDKKQNVFDDFHAAAEYLVQQKYTQPKRLAIYGGSNGGLLVGAAMTQRPELYGAVVCAVPLLDMVRYHLFGSGRTWIPEYGTAEKPEDFKTLHAYSPYHHVRPDVRYPALLMMAADHDDRVDPMHARKFVAAVQNSPGNPATALLRIEANAGHGGADQVAKAIESSVDLYSFLFQVLDVQGAQGGVAAQGR

Tests used:
[1] = system: PQPQLPYPQPQLP; assay: Acceleration of brush border mediated digestion by exogenous endoproteases; format: biochemical, wheat
Method: FIG. 3. Dose dependent acceleration of brush border mediated digestion by exogenous endoproteases. […] This peptide was digested with 27 ng/μl brush border membranes, either alone, with increasing amounts of exogenous prolyl endopeptidase (PEP, specific activity 28 μU/pg) from Flavobacterium meningosepticum (US Biological, MA), or with additional elastase (E-1250, Sigma, Mo.), bromelain (B-5144, Sigma, Mo.) or papain (P-5306, Sigma, Mo.) (12). After one hour, the fraction of remaining (SEQ ID NO:4) […] (compared to the initial amount at t=0 min) was analyzed and quantified as in FIG. 1.
Alerted by the high proline content as a hallmark of most immunogenic gliadin peptides, a proline-specific endopeptidase was tested for the generation of new, free peptide termini. A literature search on available proteases led to the identification of prolyl endopeptidase (PEP) from Flavobacterium meningosepticum, which is specific for the C-terminal cleavage of prolines and readily available from recombinant sources (Yoshimoto et al. (1991) J. Biochem. 110, 873-8). The stable (SEQ ID NO:4) […] intermediate was digested with BBM in the presence of exogenous PEP. […] As little as 3.5 pg PEP/27 ng BBM protein was sufficient to double the extent of proteolysis of this gliadin fragment compared to incubation with BBM alone. In comparison, other commonly used proteases like papain, bromelain or porcine elastase were much less efficient, requiring 30-fold (papain) or 3000-fold (bromelain, elastase) higher amounts of enzyme compared to PEP to give similar results. Their proteolysis was restricted to the cleavage of the Gln^4-Leu^5 and/or Gln^11-Leu^12 bonds.
A similar preferential cleavage was found for (SEQ ID NO:1) QLQPFP^↓QPQLPY. This is in agreement with the preference of this prolyl endopeptidase for a second proline in the S2′ position (Bordusa and Jakubke (1998) Bioorg. Med. Chem. 6, 1775-80). Based on this P^↓XP motif and on the present data, up to 16 new, major cleavage sites can be predicted in the α2-gliadin sequence, a major source of immunodominant epitopes identified thus far upon PEP treatment. All of them are located in the critical N-terminal part. The internal cleavage by PEP can be expected to generate additional (otherwise inaccessible) substrates for DPP IV and DCP thereby complementing the natural assimilation process of gliadins by the BBM. Thus, the specificity of prolyl endopeptidase is ideally suited for detoxification of persistent immunoactive gliadin peptides in Celiac Sprue.

[2] = Retention of PEP activity on lyophilization, enteric coating, storage and tabletting; format: physicochemical
Method: Lyophilization of M. xanthus PEP was performed as follows. The PEP was purified as described in Example 3, and concentrated to an initial concentration of 7.7 mg/ml by Tangential-Flow Filtration (TFF) using a 10K MWCO Pellicon difiltration membrane (Millipore, PLCGC10, 50 cm, Cat. No. PXC010C50). TFF (using a LabScale TFF from Millipore, Cat. No. 29751) was performed for approximately 12 hours (pressure of 50 psi (retentate)/30 psi (permeant)), with periodic addition to the reservoir of 50 mM Sodium Phosphate, 3% Sucrose pH 7.5. Thereafter, PEG-4000 was added with a target concentration of 1%. The final protein concentration was 70-100 mg/ml. This material was centrifuged, then lyophilized. The lyophilization was performed in square petri dishes (Falcon Cat. No. 35-1112) in a DuraStop lyophilizer using parameters outlined in the Table below. Typically, 0.7-0.85 mg PEP was present per mg of lyophilized material.
The enteric coating was mixed vigorously in a beaker on a stir plate. The solution was then decanted into a spray bottle. Rat capsules were carefully spread on paper towels in groups of 20 and the enteric coating solution sprayed onto the capsules. Warm air was used to partially dry the capsules before moving them to a dry paper towel where they air-dried for 30 minutes before the next coat was applied. A total of 3 coats were applied in order to cover all sides of the capsules. […]

Molecule | preferred cleavage bond in PQPQLPYPQPQLP [1] | amount sufficient to double the extent of proteolysis of PQPQLPYPQPQLP compared to BBM alone ([1]; 27 ng/μl BBM, one hour) [pg PEP/27 ng BBM protein] | specific activity upon lyophilization [2]
B1 | Pro^8-Gln^9 and to a lesser extent the Pro^6-Tyr^7 bond | 3.5 | –
B2 | – | – | No loss of specific activity
